Laboratory results as given in patent US20060031961A1, “Aldehyde reductase” (priority 2004, published 2006).
Several values for one entry are separate records, joined by “and”; a condition that tells them apart may be missing. Identical values can stand only once.

B1: sls2c.pk027.a23:fis: soybean aldehyde reductase encoded by clone sls2c.pk027.a23:fis, expressed in E. coli and purified (protein)
chain: MAKSIKFFELNTGAKIPSLGLGTWQAEPGVVAEALTTAIQVGYRHIDCASAYKNQAEIGSALKKLFDDGVVKREDLWITSKLWCSDHAPEDVPKALDKTLQELQLDYLDLYLIHWPVRMKSGTFGLNKEYLEQPDIPNTWRAMEALYDSDKARAIGVSNFSSKKLQDLLDIARVVPAVNQVELHPGWQQPKLRAFCESKEIHLSGYSPLGSPAALKSDILKNPVVTEIAERLGKTPAQVALRWGLQAGHSVLPKSTNESRIKGNFDIFDWSIPQDLMTKISEIKQERLVKASFFVHETYGAYRSIEDFWDGEL
modifications: Glycine max
notes: soybean aldehyde reductase encoded by clone sls2c.pk027.a23:fis, expressed in E. coli and purified
B2: sr1.pk0003.c5: soybean aldehyde reductase encoded by clone sr1.pk0003.c5:fis, expressed in E. coli and purified (protein)
chain: MAKLIKFFELNTGAKIPSVGLGTWQAEPGVVAKAVTTAILVGYRHIDCAQAYNNQAEIGSALKKLFDDGVVKREDLWITSKLWCSDHASEDVPKALDKTLQDLQLDYLDLYLIHWPVRMKSGSVGFKKEYLDQPDIPSTWKAMEALYDSGKARAIGVSNFSSKKLQDLMNIARVPPAVNQVELHPGWQQPKLHAFCESKGVHLSGYSPLGSPGVLKSDILKNPVVIEIAEKLGKTPAQVALRWGLQTGHSVLPKSTNESRIKGNFDVFDWSIPEEVMDKFSEIKQDRLIKGTFFVDETYGAFKTVEELWDGEL
modifications: Glycine max
notes: soybean aldehyde reductase encoded by clone sr1.pk0003.c5:fis, expressed in E. coli and purified

Tested on: aldehyde reductase
Assay: Aldehyde reductase activity assay of expressed, purified proteins (oxidation of NADPH, change in A340)
Type: biochemical, Soybean (Glycine max L.)
Experimental: The activity assay measured oxidation of NADPH on a UV500 UV-Visible double-beam Spectrometer (Unicam) by monitoring the change in A340. The assay was performed at room temperature (approximately 23° C.) by adding all of the following reagents into a 1-mL 1-cm quartz cuvette: 500 μL of 200 mM HEPES-KOH pH 7.0, 200 μL of ddH2O, 100 μL of 1 mM NADPH, 25-50 μL aldehyde reductase extract in a 100 μL total volume of 100 mM HEPES-KOH pH 7.0, 10% glycerol buffer. After these samples were mixed and blanked and were incubated for three minutes and a pre-substrate rate was calculated, the assay was started by addition of the substrate to the sample cuvette (solvent was added to the reference cuvette). Several different substrates were tested with each enzyme preparation. These substrates included the following: 100 μL of 100 mM glyceraldehyde, 10 μL of 100 mM glyceraldehyde, or 100 μL of 0.5% […] hexanal in v/v ethanol, or 100 μL of a carbonyl compounds mixture (ULTRA Scientific, North Kingston, R.I.; formaldehyde, acetaldehyde, propanal, butantal, pentanal, hexanal, heptanal, octanal, nonanal, decanal, cyclohexanone, and crotonaldehdye (in methanol)). The carbonyl compounds mixture contains approximately 16 μmole total aldehyde per assay. Except for the inactivity seen in one aldehyde reductase extract with hexanal as the substrate, both of the aldehyde reductase enzymes were active with each of the different substrates tested (see Table 6). As a control, an extract of E. coli proteins without the expressed aldehyde reductase enzymes was prepared and assayed the same way. […] A Bradford assay was performed to determine protein concentrations in the extracts, and the enzymatic rates were calculated. Table 6 presents the activity (in μmol of NADPH oxidized and were NADPH specific (i.e., no activity was observed when NADH was used as the reductant)/min^−1/mg protein^−1) obtained for the purified protein extracts from the plasmids and the source of the DNA. Enzyme activity was calculated as follows: (ΔA340/min; after correction for pre-substrate addition rates)/(6.2×mg enzyme/mL reaction mixture).

[1] = substrate 1 mM glyceraldehyde, NADPH
[2] = substrate 10 mM glyceraldehyde, 100 μL of 1 mM NADH substituted for NADPH
[3] = substrate 10 mM glyceraldehyde, 100 μL of 10 mM ZnCl2 substituted for 100 μL ddH2O
[4] = substrate 10 mM glyceraldehyde, NADPH, room temperature, pH 7.0
[5] = substrate 100 μL 0.5% hexanal, NADPH
[6] = substrate 100 μL aldehyde mixture (carbonyl compounds mixture), NADPH

Row | Molecule | Activity [1] | Activity [2] | Activity [3] | Activity [4] | Activity [5] | Activity [6]
1 | B1 | 0.14 μmol · min^−1 · mg protein^−1 | 0.00 μmol · min^−1 · mg protein^−1 | 0.28 μmol · min^−1 · mg protein^−1 | 0.70 μmol · min^−1 · mg protein^−1 and 0.60 μmol · min^−1 · mg protein^−1 and 0.74 μmol · min^−1 · mg protein^−1 | 0.00 μmol · min^−1 · mg protein^−1 | 0.58 μmol · min^−1 · mg protein^−1
2 | B2 | 0.58 μmol · min^−1 · mg protein^−1 | 0.00 μmol · min^−1 · mg protein^−1 | 0.45 μmol · min^−1 · mg protein^−1 | 1.65 μmol · min^−1 · mg protein^−1 and 1.90 μmol · min^−1 · mg protein^−1 and 2.24 μmol · min^−1 · mg protein^−1 | 0.26 μmol · min^−1 · mg protein^−1 | 0.55 μmol · min^−1 · mg protein^−1
